From patent publication US20120114595A1 (OTSUKA CHEMICAL, published 2012)

Columns and labels:
[1] = target: T1, AILIM ligand B7-H2/Fc Chimera (R&D Systems, Inc.), biotinylated (UniProt O75144 19-258, biotinylated using EZ-Link NHS-PEO Solid Phase Biotinylation Kit (sites not given)); assay: ELISA, coated synthetic AILIM (lot a, 0.01671 nmol/ml) against coated ICOS/Fc as reference, biotinylated B7-H2/Fc
T1 construct: Bought reagent; also called B7RP-1; Fc part of the bought chimera not given
T1 sequence (looked up): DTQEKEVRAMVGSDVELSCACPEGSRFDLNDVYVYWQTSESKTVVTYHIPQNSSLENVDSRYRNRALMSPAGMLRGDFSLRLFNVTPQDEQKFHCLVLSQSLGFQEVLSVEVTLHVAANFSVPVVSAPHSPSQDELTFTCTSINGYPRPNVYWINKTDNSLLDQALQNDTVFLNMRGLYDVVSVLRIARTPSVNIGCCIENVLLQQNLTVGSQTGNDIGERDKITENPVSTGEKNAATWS
Description: (§1) Dilution series of each evaluation sample solution of synthetic AILIM were added to an ELISA plate, and each well was coated therewith by reaction at 37° C. for 2 hours. After the reaction, the sample solution was discarded, D-PBS (−) containing 0.4% bovine serum albumin and 0.05% Tween 20 (blocking solution) was added at a concentration of 150 μL/well, and each well was blocked by reaction at 37° C. for 1 hour. The plate thus blocked was washed 3 times with D-PBS (−) containing 0.1% bovine serum albumin and 0.05% Tween 20 (washing buffer). An AILIM ligand B7-H2/Fc Chimera (R&D Systems, Inc.) biotinylated using EZ-Link NHS-PEO Solid Phase Biotinylation Kit was added at a concentration of 200 ng/50 μL/well and reacted at 37° C. for 1.5 hours. Unreacted ligand molecules were removed by washing 3 times with the washing buffer.
(§2) Subsequently, streptavidin-labeled horseradish peroxidase (BD-Pharmingen) diluted 1000-fold with D-PBS (−) containing 0.1% bovine serum albumin was added at a concentration of 100 μL/well and reacted at 37° C. for 1 hour. After the reaction, the plate was washed with 3 times with the washing buffer to remove unreacted streptavidin-labeled horseradish peroxidase. […] The reaction was terminated by the addition of 1% SDS at a concentration of 100 μL/well, and the OD value at 405 nm was measured using a plate reader (VersaMax, Molecular Devices, LLC). […]

[2] = target: T1, AILIM ligand B7-H2/Fc Chimera (R&D …); assay: ELISA, coated synthetic AILIM against coated ICOS/Fc as reference, biotinylated B7-H2/Fc
Description: as §1, §2

[3] = target: T1, AILIM ligand B7-H2/Fc Chimera (R&D …); assay: ELISA, coated synthetic AILIM (lot a, 0.004178 nmol/ml) against coated ICOS/Fc as reference, biotinylated B7-H2/Fc
Description: as §1, §2

[4] = target: T1, AILIM ligand B7-H2/Fc Chimera (R&D …); assay: ELISA, coated synthetic AILIM (lot a, 0.06684 nmol/ml) against coated ICOS/Fc as reference, biotinylated B7-H2/Fc
Description: as §1, §2

- B/A (ICOS/Fc concentration for the same absorbance over synthetic AILIM concentration) [1]: 6.05 fold
- fold ICOS/Fc concentration required for equivalent ligand binding activity [2]: ~10 fold
- B/A (ICOS/Fc concentration for the same absorbance over synthetic AILIM concentration) [3]: 8.88 fold
- B/A (ICOS/Fc concentration for the same absorbance over synthetic AILIM concentration) [4]: 11.4 fold
B1: oligosaccharide chain-added extracellular domain of AILIM (synthetic AILIM), 120-amino acid extracellular domain of human AILIM with an asialo-nonasaccharide … (receptor)
chain: EINGSANYEMFIFHNGGVQILCKYPDIVQQFKMQLLKGGQILCDLTKTKGSGNTVSIKSLKFCHSQLSNNSVSFFLYNLDHSHANYYFCNLSIFDPPPFKVTLTGGYLHIYESQLCCQLK
modifications: asialo-nonasaccharide chain on Asn at position 69 (residue 89 by counting from the N-terminal Met of AILIM); no oligosaccharide chain at positions 3 and 90
notes: Made by chemical synthesis (Fmoc solid phase, KCL/NCL ligation), Acm groups removed, folded by dialysis in two dialysis tubes (lot a and lot b); Coated on the ELISA plate in the assays; also called synthetic AILIM lot. a; synthetic AILIM lot. b
